We go through six substances from US20240132578A1.

Some results are limits rather than exact numbers.

In assay [1] the target is HIV-1 Env of isolate 92BR020 (Clade B) (HIV-1). Put plainly: cell-based or functional assay.
Assay [2] deals with HIV-1 Env of pseudovirus MGRM-F1-013 (clade F) (HIV-1). Description: cell-based or functional assay.
In assay [3] the target is HIV-1 Env of isolate IAVI-C22 (Clade C) (HIV-1). Description: cell-based or functional assay.
Assay [4] deals with HIV-1 Env of isolate 92UG005 (Clade D) (HIV-1). Description: cell-based or functional assay.
In assay [5] the target is HIV-1 Env of isolate IAVI-C3 (Clade C) (HIV-1). Put plainly: cell-based or functional assay.
Assay [6] addresses aMLV envelope (negative control). Description: cell-based or functional assay.
For assay [7], the target named is HIV-1 Env of isolate NL43 (positive control) (HIV-1). Put plainly: cell-based or functional assay.
For assay [8], the target named is HIV-1 Env of isolate CMU02 (CRF01_AE) (HIV-1). Description: cell-based or functional assay.
Assay [9] concerns the target HIV-1 JR-CSF Env I326A (HIV-1 isolate JR-CSF) (UniProt P20871). Description: cell-based or functional assay.
Assay [10] addresses HIV-1 JR-CSF Env I323A (HIV-1 (isolate JR-CSF, clade B)) (UniProt P20871). Put plainly: cell-based or functional assay.
The target in assay [11] is HIV-1 JR-CSF Env N332A (HIV-1 isolate JR-CSF) (UniProt P20871). Put plainly: cell-based or functional assay.
The target of assay [12] is HIV-1 Env of isolate MGRM-F1-014 (pseudovirus) (HIV-1). Description: cell-based or functional assay.
For assay [13], the target named is HIV-1 envelope glycoprotein (Env) of isolate JR-FL, on pseudovirus (HIV-1). Description: cell-based or functional assay.
In assay [14] the target is HIV-1 JR-CSF Env R327A (HIV-1 isolate JR-CSF) (UniProt P20871). Description: cell-based or functional assay.
For assay [15], the target named is HIV-1 JR-CSF Env T388A (HIV-1 isolate JR-CSF) (UniProt P20871). Put plainly: cell-based or functional assay.
Assay [16] deals with HIV-1 JR-CSF Env Q337A (HIV-1 isolate JR-CSF) (UniProt P20871). Put plainly: cell-based or functional assay.
In assay [17] the target is HIV-1 94UG103 envelope protein (Env) on pseudotyped virus (HIV-1 strain 94UG103). Put plainly: cell-based or functional assay.
The target of assay [18] is JR-FL GP120 ΔV3 (HIV-1 JR-FL). Put plainly: ELISA, antigen-coated wells, mAb titrated; EC50 by nonlinear regression. A general note: ELISA stands for enzyme-linked immunosorbent assay.
Assay [19] addresses HIV-1 envelope glycoprotein (Env) of isolate 93WR029 (HIV-1). Put plainly: cell-based or functional assay.
In assay [20] the target is HIV-1 envelope glycoprotein (Env) of isolate MG RM-A-005 (HIV-1). Description: cell-based or functional assay.
The target in assay [21] is HIV-1 Env of isolate MG RM-D-003 (subtype D) (HIV-1). Put plainly: cell-based or functional assay.
Assay [22] concerns the target HIV-1 Env of isolate MG RM-D-008 (subtype D) (HIV-1). Description: cell-based or functional assay.
The target in assay [23] is HIV-1 envelope glycoprotein (Env) of isolate 92UG031 (HIV-1). Description: cell-based or functional assay.
Assay [24] concerns the target HIV-1 envelope glycoprotein (Env) of isolate 92WR021 (HIV-1). Put plainly: cell-based or functional assay.
In assay [25] the target is HIV-1 envelope glycoprotein (Env) of isolate 92WR026 (HIV-1). Put plainly: cell-based or functional assay.
The target in assay [26] is HIV-1 Env of isolate MG RM-D-013 (subtype D) (HIV-1). Description: cell-based or functional assay.
Assay [27] has as its target HIV-1 Env of isolate MGRM-A-014 (pseudovirus) (HIV-1). Put plainly: cell-based or functional assay.
The target of assay [28] is HIV-1 Env of pseudovirus 98CN009 (HIV-1). Put plainly: cell-based or functional assay.
The target in assay [29] is HIV-1 Env of isolate MG RM-D-004 (subtype D) (HIV-1). Description: cell-based or functional assay.
The target of assay [30] is HIV-1 Env of isolate MGRM-F1-006 (subtype F) (HIV-1). Put plainly: cell-based or functional assay.
Assay [31] deals with HIV-1 Env of isolate 92UG046 (subtype D) (HIV-1). Put plainly: cell-based or functional assay.
The target in assay [32] is HIV-1 Env of isolate MG RM-D-005 (subtype D) (HIV-1). Put plainly: cell-based or functional assay.

One may read the IC50 as the concentration that gives 50% inhibition. A high value points to lower potency. 2G12 (antibody): the IC90 (neutralization of pseudovirus) is 24.1 µg/mL in [1]; more than 50 µg/mL in [3]; more than 50 µg/mL in assay [4]; more than 50 µg/mL in assay [5]; more than 50 µg/mL in [6]; 15.8 µg/mL in [7]. In assay [8], this substance displayed an IC90 (neutralization of pseudovirus) of more than 50 µg/mL. Besides, the IC50 in assay [2] was more than 50 µg/mL.

As to 5145_B14 (PGT-127) (antibody), the Fold IC50 increase relative to wild-type is 3.5 fold in assay [9]; 4 fold in assay [10]; more than 100 fold in [11]; 1.8 fold in [14]; 0.5 fold in assay [15]; 0.5 fold in assay [16]. The substance further displayed an IC50 (µg/mL), pseudovirus neutralization in [12] of more than 50 µg/mL. This substance also yielded an IC50, pseudovirus neutralization in [13] of 0.029 µg/mL.

For 1443_C16 (PG16) (TCN-116) (antibody), the IC90 (neutralization of pseudovirus) in assay [1], in assay [3], in [4], in assay [5], in assay [6] and in [7] was more than 50 µg/mL throughout. In assay [8], this substance came in with an IC90 (neutralization of pseudovirus) of more than 50 µg/mL. In assay [17], the IC50, Neutralizing Antibody Assay, Virus/Ab Incubation 1 hour came to 0.0211 µg/mL. Also, the IC50, Neutralizing Antibody Assay, Virus/Ab Incubation 18 hour in assay [17] came out at 0.0085 µg/mL.

What is called EC50 is the concentration needed to bring the measured effect to its halfway point. Consider 5114_A19 (PGT-128) (antibody), for which the Fold IC50 increase relative to wild-type in [9] amounted to 1.6 fold; in assay [10], 3 fold. This substance showed a 50% effective concentration (EC50) in assay [18] of 7.8 µg/mL.

On to PGV04 (antibody), for which the IC50 in assay [19] was determined as 0.54 µg/mL; in [20] it was 0.134 µg/mL; in [23] it was 4.46 µg/mL; in assay [24], 0.038 µg/mL; in [25], 0.14 µg/mL. Besides, the IC50 (µg/mL), pseudovirus neutralization in [21] was more than 50 µg/mL; in assay [22] it was 3.56 µg/mL; in assay [26], 0.088 µg/mL; in assay [27], 0.172 µg/mL; in assay [29] it was 43.2 µg/mL; in [30], more than 50 µg/mL. Moreover, the IC50 (µg/mL), pseudovirus neutralization was 22.4 µg/mL in [31] and more than 50 µg/mL in [32]. In addition, in assay [28], the IC50, pseudovirus neutralization is 0.0125 µg/mL.

1496_C09 (PG9) (TCN-109) (antibody): the IC50 stood at 0.69 µg/mL in assay [19]; 0.75 µg/mL in [20]; 0.56 µg/mL in assay [2]; 3.6 µg/mL in [23]; 0.027 µg/mL in assay [24]; 0.164 µg/mL in assay [25]. The IC50 (µg/mL), pseudovirus neutralization in assay [21] was found to be 0.033 µg/mL; in assay [22] it was 11.5 µg/mL; in [26], 0.021 µg/mL; in assay [27], 1.25 µg/mL; in assay [29] it was 0.06 µg/mL; in assay [30], 7.25 µg/mL. The IC50 (µg/mL), pseudovirus neutralization turned out to be 1.86 µg/mL in assay [31] and 1.8 µg/mL in assay [32]. Besides, the IC50, pseudovirus neutralization in [28] stood at 0.371 µg/mL. This substance also had an IC50, Neutralizing Antibody Assay, Virus/Ab Incubation 1 hour in assay [17] of 0.334 µg/mL. For the same substance, the IC50, Neutralizing Antibody Assay, Virus/Ab Incubation 18 hour in assay [17] is 0.0942 µg/mL.
